Target: T1, EED, comprising residues 76–441 (TEV-cleaved, used for crystallization) (human, UniProt O75530 76-441)
T1 construct: EED (embryonic ectoderm development), human, residues 76-441, cloned into pGEX-KG; The EED in PDB 5H13 (no EZH2 peptide) was cleaved with thrombin instead of TEV; also called embryonic ectoderm development; TEV-cleaved EED protein; source: E. coli BL21-CodonPlus(DE3)-RIL, purified (Glutathione Sepharose 4B, TEV cleavage, Ni2+-NTA flow-through, Superdex 75); not shown: GST, N-terminal, cleaved
T1 sequence (O75530 76-441): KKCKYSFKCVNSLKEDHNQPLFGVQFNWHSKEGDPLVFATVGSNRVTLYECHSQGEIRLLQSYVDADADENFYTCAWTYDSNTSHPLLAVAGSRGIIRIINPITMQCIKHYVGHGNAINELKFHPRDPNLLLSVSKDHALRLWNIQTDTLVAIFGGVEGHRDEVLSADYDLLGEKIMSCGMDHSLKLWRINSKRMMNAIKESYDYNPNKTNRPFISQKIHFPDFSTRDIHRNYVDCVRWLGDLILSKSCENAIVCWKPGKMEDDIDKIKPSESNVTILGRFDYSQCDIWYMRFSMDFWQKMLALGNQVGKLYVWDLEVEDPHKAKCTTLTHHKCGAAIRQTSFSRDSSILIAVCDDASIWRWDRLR
Assay: crystal structure; TEV-cleaved EED (76-441) mixed with EZH2 peptide at molar ratio 1:2.5; EED-EBD crystals soaked with EED709, EED666 or EED210 (0.1 M Tris pH 8.0, 16% PEG 8000, 20°C) or co-crystallised with EED162 (0.1 M Bis-Tris pH 6.0, 0.2 M MgCl2, 20% PEG 3350)
Details: both partners purified

B1: EZH2 peptide (residues 40–68, EBD) (peptide)
peptide: KSMFSSNRQKILERTEILNQEWKQRRIQPV
notes: EZH2 (Enhancer of zeste homolog 2), human; Printed as NH2-...-CO2H (free ends); also called EBD peptide; EZH2 peptide (40–68); source: synthetic peptide (GL Biochem)
- binding result: binds

Reference: publication PMC5224880, “Discovery and Molecular Basis of a Diverse Set of Polycomb Repressive Complex 2 Inhibitors Recognition by EED” (PLoS ONE, 2017)
